Source: patent publication US20220106400A1 (Bristol-Myers Squibb, published 2022)
Positions count from the first letter of the chain named. Names may count otherwise. Where two headings read alike, the source gives them in different places.

Key:
[1] = biological target: T1, human CD73 on human tumor cell lines (human, UniProt P21589 27-549); test: cell-based or functional assay
T1 sequence (looked up): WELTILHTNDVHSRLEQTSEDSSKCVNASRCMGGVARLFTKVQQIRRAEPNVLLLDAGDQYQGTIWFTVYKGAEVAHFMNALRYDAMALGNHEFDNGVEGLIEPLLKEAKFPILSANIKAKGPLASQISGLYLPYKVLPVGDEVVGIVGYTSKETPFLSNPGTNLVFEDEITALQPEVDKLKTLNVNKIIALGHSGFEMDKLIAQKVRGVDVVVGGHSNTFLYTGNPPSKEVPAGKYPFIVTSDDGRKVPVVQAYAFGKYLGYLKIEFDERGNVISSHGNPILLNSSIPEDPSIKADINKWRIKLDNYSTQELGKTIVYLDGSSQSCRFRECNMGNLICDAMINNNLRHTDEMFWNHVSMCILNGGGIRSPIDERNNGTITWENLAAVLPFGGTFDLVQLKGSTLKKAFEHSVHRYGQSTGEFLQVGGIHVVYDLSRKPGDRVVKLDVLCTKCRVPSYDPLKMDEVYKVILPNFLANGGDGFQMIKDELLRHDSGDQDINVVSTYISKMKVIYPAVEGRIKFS

[2] = biological target: T1, human CD73 on human tumor cell lines; test: cell-based or functional assay; remark: listed apart in the source
[3] = biological target: T2, full length extracellular domain of human-CD73 with C-terminal polyhistidine tag (residues 26-546) (human, UniProt P21589 26-546); test: SEC, 1:1 molar mix 5.5 uM each
T2 construct: range 26-546; also called hCD73-his; CD73-his
T2 sequence (looked up): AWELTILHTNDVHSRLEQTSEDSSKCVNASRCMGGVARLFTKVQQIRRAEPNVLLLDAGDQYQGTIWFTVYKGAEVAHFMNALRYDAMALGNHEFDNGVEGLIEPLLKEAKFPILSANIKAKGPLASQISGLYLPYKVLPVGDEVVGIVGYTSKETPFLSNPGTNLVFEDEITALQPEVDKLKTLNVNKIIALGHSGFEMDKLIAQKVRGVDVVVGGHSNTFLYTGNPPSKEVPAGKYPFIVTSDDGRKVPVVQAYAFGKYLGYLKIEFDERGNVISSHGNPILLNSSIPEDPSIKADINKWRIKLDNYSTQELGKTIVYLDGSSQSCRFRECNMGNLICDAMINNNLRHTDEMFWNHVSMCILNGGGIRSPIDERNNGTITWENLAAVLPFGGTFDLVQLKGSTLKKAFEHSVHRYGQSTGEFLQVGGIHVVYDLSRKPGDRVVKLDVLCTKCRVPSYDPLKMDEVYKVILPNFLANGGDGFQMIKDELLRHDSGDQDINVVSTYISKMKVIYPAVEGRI
Experimental: The oligomeric state of CD73/antibody complexes were examined by size-exclusion chromatography coupled to an in-line multi-angle light scattering detector (SEC-MALS). Isocratic separations were performed on a Shodex PROTEIN KW-803 column connected to an Prominence Shimadzu UFLC in buffer containing 200 mM K₂HPO₄, 150 mM NaCl, pH 6.8, containing 0.02% Na azide (0.1 μm filtered) running at 0.5 mL/min. Samples were injected onto the column using a SIL-20AC Prominence Shimadzu autosampler, and data were obtained from three online detectors connected in series: a Prominence SPD-20AD diode array UV/vis spectrophotometer followed by a Wyatt miniDAWN™ TREOS Multi-Angle Light Scattering Detector then a Wyatt Optilab T-rEX Refractive Index Detector. Data were collected and analyzed using Astra (Wyatt) and Labsolutions (Shimadzu) software.
CD73.4 antibodies having the heavy chain constant regions set forth in Table 14 were also tested for formation of high molecular weight complexes by SEC-MALS and DLS experiments, as described in Example 3.

B1: CD73.4-IgG2.5G1-KH (antibody)
heavy: QVQLVESGGGVVQPGRSLRLSCAASGFTFSNYGMHWVRQAPGKGLEWVAVILYDGSNKYYPDSVKGRFTISRDNSKNTLYLQMNSLRAEDTAVYYCARGGSSWYPDSFDIWGQGTMVTVSSASTKGPSVFPLAPSSRSTSESTAALGCLVKDYFPEPVTVSWNSGALTSGVHTFPAVLQSSGLYSLSSVVTVPSSNFGTQTYTCNVDHKPSNTKVDKTVERKCCVECPPCPAPPVAGPSVFLFPPKPKDTLMISRTPEVTCVVVDVSHEDPEVKFNWYVDGVEVHNAKTKPREEQYNSTYRVVSVLTVLHQDWLNGKEYKCKVSNKALPAPIEKTISKAKGQPREPQVYTLPPSREEMTKNQVSLTCLVKGFYPSDIAVEWESNGQPENNYKTTPPVLDSDGSFFLYSKLTVDKSRWQQGNVFSCSVMHEALHNHYTQKSLSLSPGK
light: not shown
notes: also called mAb-CD73.4-IgG2.5G1-KH; CD73.4-Vh-hHC-IgG2.5G1-KH
T1/2 internalization, Calu6 [1]: 17 min | T1/2 internalization, NCI-H292 [1]: 15.4 min | Ymax internalization, Calu6 [1]: 76% | Ymax internalization, NCI-H292 [1]: 90.8%

B2: CD73.4-IgG2.5G1.1f-KH (antibody)
heavy: B1 heavy with A330S, P331S
light: not shown
notes: also called mAb-CD73.4-IgG2.5G1.1f-KH; CD73.4-Vh-hHC-IgG2.5G1.1f-KH
T1/2 internalization, Calu6 [1]: 21.2 min | T1/2 internalization, NCI-H292 [1]: 18 min | Ymax internalization, Calu6 [1]: 79.6% | Ymax internalization, NCI-H292 [1]: 90.9%

B3: CD73.4-IgG2.5 (antibody)
heavy: B1 heavy with K274Q, Y296F, Y300F, L309V, A327G, A339T, V397M
light: not shown
notes: also called mAb-CD73.4-IgG2.5; CD73.4-Vh-hHC-IgG2.5
T1/2 internalization, Calu6 [1]: 20.9 min | T1/2 internalization, NCI-H292 [1]: 18.3 min | Ymax internalization, Calu6 [1]: 79% | Ymax internalization, NCI-H292 [1]: 89.6%

B4: CD73.4-IgG2-C219S-IgG1.1f (antibody)
heavy: B1 heavy with S135C, C223S, A330S, P331S
light: not shown
notes: also called CD73.4-IgG2CS-IgG1.1f; CD73.4-IgG2.3G1.1f-KH
T1/2 internalization, Calu6 [2]: 34 min | T1/2 internalization, NCI-H292 [2]: 15.8 min | T1/2 internalization, NCI-H1437 [2]: 19 min | T1/2 internalization, NCI-H1437 (no wash) [2]: 20.5 min | T1/2 internalization, SNU-C1 [2]: 29.7 min | T1/2 internalization, SNU-C1 (no wash) [2]: 61.5 min | Ymax internalization, Calu6 [2]: 76.8% | Ymax internalization, NCI-H292 [2]: 77.6% | T1/2 internalization, Calu6 [1]: 21 min | T1/2 internalization, NCI-H292 [1]: 16.6 min | Ymax internalization, Calu6 [1]: 81% | Ymax internalization, NCI-H292 [1]: 90.3%

B5: CD73.4-IgG2.3G1-KH (antibody)
heavy: B1 heavy with S135C, C223S
light: not shown
notes: also called mAb-CD73.4-IgG2.3G1-KH; CD73.4-Vh-hHC-IgG2.3G1-KH
T1/2 internalization, Calu6 [1]: 23.8 min | T1/2 internalization, NCI-H292 [1]: 16.8 min | Ymax internalization, Calu6 [1]: 81.6% | Ymax internalization, NCI-H292 [1]: 91.6%

B6: CD73.4-IgG2.3-plusTHT (antibody)
heavy: QVQLVESGGGVVQPGRSLRLSCAASGFTFSNYGMHWVRQAPGKGLEWVAVILYDGSNKYYPDSVKGRFTISRDNSKNTLYLQMNSLRAEDTAVYYCARGGSSWYPDSFDIWGQGTMVTVSSASTKGPSVFPLAPCSRSTSESTAALGCLVKDYFPEPVTVSWNSGALTSGVHTFPAVLQSSGLYSLSSVVTVPSSNFGTQTYTCNVDHKPSNTKVDKTVERKSCVETHTCPPCPAPPVAGPSVFLFPPKPKDTLMISRTPEVTCVVVDVSHEDPEVQFNWYVDGVEVHNAKTKPREEQFNSTFRVVSVLTVVHQDWLNGKEYKCKVSNKGLPAPIEKTISKTKGQPREPQVYTLPPSREEMTKNQVSLTCLVKGFYPSDIAVEWESNGQPENNYKTTPPMLDSDGSFFLYSKLTVDKSRWQQGNVFSCSVMHEALHNHYTQKSLSLSPGK
light: not shown
notes: also called mAb-CD73.4-IgG2.3-plusTHT; CD73.4-Vh-hHC-IgG2.3-plusTHT
T1/2 internalization, Calu6 [1]: 21.3 min | T1/2 internalization, NCI-H292 [1]: 17.6 min | Ymax internalization, Calu6 [1]: 81.2% | Ymax internalization, NCI-H292 [1]: 91.4% | UV % Peak1 <12.9 min [3]: 30.6% | UV % Peak4 16.7-19.3 min (free mAb) [3]: 33.7% | UV % Peak5 >19.3 min [3]: 3.2%

B7: CD73.4-IgG2.5-plusTHT (antibody)
heavy: B6 heavy with C135S, S223C
light: not shown
notes: also called mAb-CD73.4-IgG2.5plusTHT/LC; CD73.4-Vh-hHC-IgG2.5plusTHT/LC
T1/2 internalization, Calu6 [1]: 17.2 min | T1/2 internalization, NCI-H292 [1]: 15.4 min | Ymax internalization, Calu6 [1]: 80.2% | Ymax internalization, NCI-H292 [1]: 89.6%

B8: CD73.4-IgG2.3-plusGGG (antibody)
heavy: B6 heavy with T227G, H228G, T229G
light: not shown
notes: also called mAb-CD73.4-IgG2.3-plusGGG; CD73.4-Vh-hHC-IgG2.3-plusGGG
T1/2 internalization, Calu6 [1]: 20.1 min | T1/2 internalization, NCI-H292 [1]: 16.3 min | Ymax internalization, Calu6 [1]: 81.7% | Ymax internalization, NCI-H292 [1]: 91.6%
